# Experimental data: PMC4777393, “Structural Basis for Recognition of Human Enterovirus 71 by a Bivalent Broadly Neutralizing Monoclonal Antibody” (PLoS Pathogens, 2016)
# Positions count from the first letter of the chain named.
# B1: D5 intact IgG (antibody, V domains shown)
# VH: EVQLQQSGAELVKPGASVKLSCTASGFNIKDTYIHWVKQRPEQGLEWIGKIDPANGNTKYDPKFQDKATITADTSSNTAYLQLSSLTSEDTAVYYCANSNYWFDFDYWGQGTTLTVSS
# VL: DVLMTQTPLSLPVSLGDQASISCRSSQSIVHSNGNTYLEWYLQKPGQSPKLLIYKVSNRFSGVPDRFSGSGSGTDFTLKISRVEADDVGVYYCYQGSHVPYTFGGGTKLEIK
# notes: variable region of the D5 heavy chain (VH, 1-118 aa); constant region of the mouse IgG heavy chain; variable region of the D5 light chain (VL, 1-113 aa); constant region of the mouse light chain; also called MAb D5; mAb D5; source: D5 hybridoma (mouse)
# B2: D5 Fab (Fab, V domains shown)
# VH: B1 VH
# VL: B1 VL
# notes: variable region of the D5 heavy chain (VH, 1-118 aa), as the heavy chain of m1; constant part of the Fab heavy chain left by papain; variable region of the D5 light chain (VL, 1-113 aa), as the light chain of m1; constant region of the mouse light chain; also called Fab of D5; D5 Fab fragment; source: papain digestion of D5 IgG, purified (Hitrap Protein G, Sephacryl S-100)
# B3: D5 scFv-F103A (scFv, V domains shown)
# VH: B1 VH with F103A
# VL: B1 VL
# notes: variable region of the D5 heavy chain (VH, 1-118 aa), as the VH of m3 with the stated change; 11-amino acid residue (GGGGS)2G linker; variable region of the D5 light chain (VL, 1-113 aa), as the VL of m3; Point mutant of m3 in the heavy chain CDR3; source: E. coli BL21, purified from the soluble fraction (Ni-NTA)
# B4: D5 wild-type single-chain variable fragment (scFv-WT) (scFv, V domains shown)
# VH: B1 VH
# VL: B1 VL
# notes: variable region of the D5 heavy chain (VH, 1-118 aa); 11-amino acid residue (GGGGS)2G linker; variable region of the D5 light chain (VL, 1-113 aa); Cloned in pET28b; also called wild-type scFv; VH-(GGGGS)2G-VL; source: E. coli BL21, purified from the soluble fraction (Ni-NTA)
# B5: D5 scFv-N100A (scFv, V domains shown)
# VH: B1 VH with N100A
# VL: B1 VL
# notes: as for B3
# Assays:
# [1] = target: SP70 peptide (amino acid residues 208 to 222 of EV71 VP1) (UniProt Q66478); experiment: ELISA; conditions: read off a plot
# [2] = target: EV71 mature virion (F-particle), inactivated; experiment: ELISA; conditions: read off a plot
# [3] = target: EV71 procapsid (E-particle), inactivated; experiment: ELISA; conditions: read off a plot
# [4] = target: EV71 virus-like particle (VLP); experiment: ELISA; conditions: read off a plot
# SCARB2-Fc = SCARB2-Fc (UniProt Q14108); experiment: pull-down with SCARB2-Fc and anti-human Fc IgG conjugated beads, quantified by qRT-PCR; conditions: 4°C; parent: est. 100; read off a plot
# Sequence of SCARB2-Fc (Q14108 whole entry): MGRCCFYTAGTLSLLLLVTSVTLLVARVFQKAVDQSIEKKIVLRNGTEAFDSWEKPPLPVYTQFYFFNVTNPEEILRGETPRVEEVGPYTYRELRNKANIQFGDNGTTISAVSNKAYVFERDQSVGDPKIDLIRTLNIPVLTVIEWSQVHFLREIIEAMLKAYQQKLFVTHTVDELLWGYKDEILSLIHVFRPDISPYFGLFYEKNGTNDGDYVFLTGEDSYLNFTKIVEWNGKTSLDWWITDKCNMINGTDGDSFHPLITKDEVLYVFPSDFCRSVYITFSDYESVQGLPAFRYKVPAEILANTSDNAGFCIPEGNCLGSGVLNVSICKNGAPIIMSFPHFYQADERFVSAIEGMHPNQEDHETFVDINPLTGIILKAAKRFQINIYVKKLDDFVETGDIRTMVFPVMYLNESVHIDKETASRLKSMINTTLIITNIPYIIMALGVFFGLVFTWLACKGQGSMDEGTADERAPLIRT
# [5] = target: EV71/G082 wild-type virus (enterovirus 71 strain EV71/G082)
# [6] = target: EV71/G082 wild-type virus (enterovirus 71 strain EV71/G082); remark: listed apart in the source
# [7] = target: T1, EV71 mature virion (F-particle), inactivated (Enterovirus A71, strain of the …); experiment: BLI; Octet RED 96; biotin-labelled inactivated F-particles on streptavidin tips; D5 IgG or Fab at 40 to 0.0128 μg/ml; kinetics buffer (PBS, 0.1% BSA, 0.02% Tween-20), room temperature; called avidities; conditions: both partners purified
# T1 construct: VP1 of enterovirus 71, cut product of the polyprotein; PDB 3VBS is the crystal structure fitted into the map and may be of another strain; numbers count on: the mature VP1 chain; VP2 of enterovirus 71, cut product of VP0 of the polyprotein; numbers count on: the mature VP2 chain; VP3 of enterovirus 71, cut product of the polyprotein; numbers count on: the mature VP3 chain; VP4 of enterovirus 71, …
# T1 chain 1: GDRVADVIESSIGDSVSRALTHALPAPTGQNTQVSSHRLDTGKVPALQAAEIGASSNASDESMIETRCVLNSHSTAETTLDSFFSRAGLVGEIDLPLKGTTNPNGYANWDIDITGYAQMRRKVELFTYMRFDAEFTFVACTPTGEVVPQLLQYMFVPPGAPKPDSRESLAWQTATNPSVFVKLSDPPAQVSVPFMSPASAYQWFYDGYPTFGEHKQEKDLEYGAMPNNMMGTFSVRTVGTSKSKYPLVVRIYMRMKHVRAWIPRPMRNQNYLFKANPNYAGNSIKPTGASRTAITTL
# T1 chain 2: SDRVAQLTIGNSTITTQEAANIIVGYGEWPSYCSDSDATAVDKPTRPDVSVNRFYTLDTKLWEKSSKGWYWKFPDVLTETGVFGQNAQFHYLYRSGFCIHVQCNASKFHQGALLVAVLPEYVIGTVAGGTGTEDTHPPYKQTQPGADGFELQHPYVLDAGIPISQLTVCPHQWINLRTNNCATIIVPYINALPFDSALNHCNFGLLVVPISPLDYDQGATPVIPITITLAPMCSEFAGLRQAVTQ
# T1 chain 3: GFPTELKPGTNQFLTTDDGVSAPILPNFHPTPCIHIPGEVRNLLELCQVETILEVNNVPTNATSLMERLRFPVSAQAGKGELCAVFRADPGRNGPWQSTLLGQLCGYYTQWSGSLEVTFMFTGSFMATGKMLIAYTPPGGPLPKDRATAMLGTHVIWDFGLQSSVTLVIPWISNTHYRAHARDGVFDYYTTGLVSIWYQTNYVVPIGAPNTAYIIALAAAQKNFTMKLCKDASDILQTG
# [8] = target: EV71/G082 wild-type virus (enterovirus 71 strain EV71/G082); remark: listed apart in the source
# [9] = target: T2, SP70 peptide (amino acid residues 208 to 222 of EV71 VP1) (Enterovirus 71; stretch identical among …); experiment: ELISA; plates coated with 20 ng/well E-particle, F-particle or VLP or 100 ng/well SP70 peptide; serially diluted scFv 2 h at 37°C; detected with HRP anti-His antibody; conditions: both partners purified
# T2 construct: VP1 of enterovirus 71, residues 208 to 222, corresponding to the GH-loop; Q66478 is strain BrCr; numbers count on: the mature VP1 chain
# T2 chain: YPTFGEHKQEKDLEY
# [10] = 6.25 ng/well, parent: est. 0.83
# [11] = 6.25 ng/well, parent: est. 0.52
molecule,measurement,setting,value
D5 wild-type single-chain variable fragment (scFv-WT) N100A,response,[1]; [10],0.43 OD450nm
same,response,"[1]; 25 ng/well, parent: est. 2.0",1.3 OD450nm
same,response,"[1]; 100 ng/well, parent: est. 3.0",2.7 OD450nm
same,response,"[1]; 400 ng/well, parent: est. 3.1",3 OD450nm
same,response,[2]; [11],0.43 OD450nm
same,response,"[2]; 25 ng/well, parent: est. 0.76",0.67 OD450nm
same,response,"[2]; 100 ng/well, parent: est. 0.88",0.9 OD450nm
same,response,"[2]; 400 ng/well, parent: est. 1.0",1 OD450nm
same,response,"[3]; 6.25 ng/well, parent: est. 1.8",1.7 OD450nm
same,response,"[3]; 25 ng/well, parent: est. 2.1",2.1 OD450nm
same,response,"[3]; 100 ng/well, parent: est. 2.2",2.4 OD450nm
same,response,"[3]; 400 ng/well, parent: est. 2.1",2.2 OD450nm
same,response,"[4]; 6.25 ng/well, parent: est. 1.3",1.1 OD450nm
same,response,"[4]; 25 ng/well, parent: est. 1.6",1.4 OD450nm
same,response,"[4]; 100 ng/well, parent: est. 1.8",1.8 OD450nm
same,response,"[4]; 400 ng/well, parent: est. 1.8",1.8 OD450nm
EV71/G082 wild-type virus K218E,percent of parent,SCARB2-Fc,65%
D5 wild-type single-chain variable fragment (scFv-WT) F105A,response,"[1]; 400 ng/well, parent: est. 3.1",0.05 OD450nm
same,response,"[2]; 400 ng/well, parent: est. 1.0",0.12 OD450nm
same,response,"[3]; 400 ng/well, parent: est. 2.1",0.43 OD450nm
same,response,"[4]; 400 ng/well, parent: est. 1.8",0.2 OD450nm
D5 wild-type single-chain variable fragment (scFv-WT) Y101A,response,"[1]; 400 ng/well, parent: est. 3.1",0.05 OD450nm
same,response,"[2]; 400 ng/well, parent: est. 1.0",0.15 OD450nm
same,response,"[3]; 400 ng/well, parent: est. 2.1",0.3 OD450nm
D5 wild-type single-chain variable fragment (scFv-WT) F103A,response,[1]; [10],0.3 OD450nm
same,response,"[1]; 25 ng/well, parent: est. 2.0",0.95 OD450nm
same,response,"[1]; 100 ng/well, parent: est. 3.0",2.2 OD450nm
same,response,"[1]; 400 ng/well, parent: est. 3.1",2.7 OD450nm
same,response,[2]; [11],0.18 OD450nm
same,response,"[2]; 25 ng/well, parent: est. 0.76",0.42 OD450nm
same,response,"[2]; 100 ng/well, parent: est. 0.88",0.7 OD450nm
same,response,"[2]; 400 ng/well, parent: est. 1.0",0.86 OD450nm
same,response,"[3]; 6.25 ng/well, parent: est. 1.8",0.82 OD450nm
same,response,"[3]; 25 ng/well, parent: est. 2.1",1.6 OD450nm
same,response,"[3]; 100 ng/well, parent: est. 2.2",2.2 OD450nm
same,response,"[3]; 400 ng/well, parent: est. 2.1",2.2 OD450nm
same,response,"[4]; 6.25 ng/well, parent: est. 1.3",0.48 OD450nm
same,response,"[4]; 25 ng/well, parent: est. 1.6",1.1 OD450nm
same,response,"[4]; 100 ng/well, parent: est. 1.8",1.6 OD450nm
same,response,"[4]; 400 ng/well, parent: est. 1.8",1.7 OD450nm
D5 wild-type single-chain variable fragment (scFv-WT) W102A,response,"[1]; 400 ng/well, parent: est. 3.1",0.05 OD450nm
same,response,"[2]; 400 ng/well, parent: est. 1.0",0.1 OD450nm
same,response,"[3]; 400 ng/well, parent: est. 2.1",0.3 OD450nm
same,response,"[4]; 400 ng/well, parent: est. 1.8",0.19 OD450nm
EV71/G082 wild-type virus K218T,percent of parent,SCARB2-Fc,84%
D5 wild-type single-chain variable fragment (scFv-WT) D104A,response,"[1]; 400 ng/well, parent: est. 3.1",0.05 OD450nm
same,response,"[2]; 400 ng/well, parent: est. 1.0",0.09 OD450nm
same,response,"[3]; 400 ng/well, parent: est. 2.1",0.08 OD450nm
same,response,"[4]; 400 ng/well, parent: est. 1.8",0.05 OD450nm
B1,"IC50 of neutralization of EV71 G082 on RD cells, post-attachment neutralization assay",[5],10.1 nM
same,"IC50 of neutralization of EV71 G082 (100 TCID50) on RD cells, standard neutralization assay, MTT",[6],2.23 nM
same,Kd,[7],6 nM
same,"IC50 of neutralization (50% inhibition of cell death, MTT assay), EV71/G082",[8],0.183 µg/mL
same,"Neutralization concentration (lowest antibody concentration that fully prevents CPE), EV71/G082",[8],0.313 µg/mL
B2,"IC50 of neutralization of EV71 G082 on RD cells, post-attachment neutralization assay",[5],191 nM
same,"IC50 of neutralization of EV71 G082 (100 TCID50) on RD cells, standard neutralization assay, MTT",[6],37.4 nM
same,Kd,[7],15 nM
B3,binding result,[9],binds
B4,binding result,[9],binds
B5,binding result,[9],binds
